Results from PMC2800194.

Key:
Assay in all cases: fluorescence anisotropy
Details in all cases: Anisotropy: 45 mM Tris pH 8.0, 1 mM CoCl2, 1 mM 2-oxoglutarate, 1 nM DNA, 25 °C, added salt not stated
[1] = system: AlkB W69A (Escherichia coli)
[2] = system: AlkB T51A (Escherichia coli)
[3] = molecular target: T1, AlkB D135A D135A (Escherichia coli) (UniProt P05050)
T1 sequence: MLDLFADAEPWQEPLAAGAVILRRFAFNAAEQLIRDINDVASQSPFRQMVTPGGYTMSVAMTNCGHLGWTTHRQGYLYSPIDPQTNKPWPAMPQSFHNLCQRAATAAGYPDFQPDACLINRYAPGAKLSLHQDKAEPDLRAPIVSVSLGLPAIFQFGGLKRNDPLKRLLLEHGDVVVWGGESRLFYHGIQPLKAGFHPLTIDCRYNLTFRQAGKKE

[4] = system: AlkB R161A (Escherichia coli)
[5] = system: AlkB wt (Escherichia coli)
[6] = system: AlkB Y76A (Escherichia coli)
[7] = one 1-methyladenine (position not given)
[8] = 1,N6-ethenoadenine (position not given)

30-mer 1-meA showed a Kd [1, 7] of 5.2 µM, a Kd [2, 7] of 1.5 µM and a Kd [3, 7] of 0.316 µM. For the same substance, the Kd [4, 7] was 9.6 µM, the Kd [5, 7] was 2 µM and the Kd [6, 7] was 11 µM.
Work on 30-mer undamaged yielded a Kd [1] of 35 µM, a Kd [2] of 51 µM and a Kd [3] of 4.9 µM. It also gave a Kd [4] of 20 µM, a Kd [5] of 16 µM and a Kd ([6]; 1 mM Co2+, 1 mM 2-OG) of 38 µM.
In the case of 30-mer εA, the Kd [1, 8] is reported as 7.8 µM, the Kd [2, 8] is reported as 2.7 µM and the Kd [3, 8] is reported as 0.127 µM. It also gave a Kd [4, 8] of 8 µM, a Kd [5, 8] of 1.2 µM and a Kd [6, 8] of 22 µM.
